Data on 41 sequences can be found in the nanobody polyreactivity screen of Harvey et al. (2022).

This data set in a line: yeast display, Sf9 membrane polyspecificity reagent, FACS + sequencing; frameworks hold sequencing errors. The essentials: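 Sorting gates, low and high (top ~1%), were placed on anti-HA fluorescence to track expression and on streptavidin fluorescence to track reagent binding. A clone's polyreactivity label is taken from the gate it came out of. The reagent was 10% biotinylated, detergent-solubilized Sf9 membrane, applied for 1 hour at 4 °C to galactose-induced yeast display cells.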
On to “QVQLQESGGGLVQAGGSLLSCAASGTISWVDEMGWYRQAPGNERELVAGIAGGGNTNYADSVKGRYTISRDNAKNTVYLQMNSLDTAVYYCAVVGFGRGTHIYWGQGTQVTVSS”, for which the “polyreactivity (PSR sort gate)” value is recorded as “high polyreactivity”. The entry for “QVQLQESGGGLVQAGGSLRLGCAASGNISDAGYMGWYRQAPGKEREFVAAIAAGSNTNYADSVKGRFTISRDNAKNTVYLQMNSLKPEDTAVFYCAVGSYARVQYEYWGQGTQVTVNS” is “low polyreactivity”. As for “QVQLQESGGGLVQAGGSLRLRCAASGYISAGRQMGWYRQGPGKEREFVATINGGATTNYADSVKGRFTISRDNAKNSVYLQMNSLKPEDTAVYYCAVRTYIYDIHRYWGQGTQVTVSS”, the “polyreactivity (PSR sort gate)” value was “high polyreactivity”. Turning to “QVQLQESGGGLVQAGGSLRLSCAASCTISQEDWMGSYRQAPGKEREFVAAIGLGSNTNYADSLKGRFTISRDNAKNTVYLQMNSLKPEDTAVYYCAVSVWQYSDHVYRGQGTQVTVSS”, the “polyreactivity (PSR sort gate)” value was “low polyreactivity”.

For “QVQLQESGGGLVQAGGSLRLSCAASCTISQEDWMGWYRQAPGKEREFVAAIGLGSNTNYAESLKGRFTISRDNAKKTVYLQLHSLKPEDTAVYYCAVSVWQYSDHVYGGQGTQVTVSS”, the “polyreactivity (PSR sort gate)” value was “low polyreactivity”. As for “QVQLQESGGGLVQAGGSLRLSCAASGNIFDADIMGWYRQAPGKERELVASITDGGSTNYADSVKGRFTISRDNAKNTLYLQLISLYPDDTGVYYCAAIAYPDIPTYFDYDSDYFYWGQGTQVTVSS”, the “polyreactivity (PSR sort gate)” value is recorded as “high polyreactivity”. With “QVQLQESGGGLVQAGGSLRLSCAASGNIFPTVSMGWYRQAPGKEREFVVTIDPGSNTYYADSAKGRFTISRDNAKNTVYLQMNSPKPEDTAVYYCAVVFADWATYGYWGQGTQVTVSS”, the “polyreactivity (PSR sort gate)” value is recorded as “high polyreactivity”. With “QVQLQESGGGLVQAGGSLRLSCAASGNISSYYRMGSYRQAPGKEREFVATIAVGGTTNYADSVKGRFTISRDNAKNTVYLQMNSLKPEDTAVCFCAANSTQYTWFDYWGQGTQVPVSS”, the “polyreactivity (PSR sort gate)” value is listed as “low polyreactivity”. For the sequence “QVQLQESGGGLVQAGGSLRLSCAASGNISVTGFMGWYRQAPGKERELVASIGIGGTTYYADSVKGRFSISRDNAKNTVYLQMNSLKPEDTAVYYCAARVIYYYGSGPYDYWGQGTQVTVSS”, the “polyreactivity (PSR sort gate)” value is on record as “low polyreactivity”. “QVQLQESGGGLVQAGGSLRLSCAASGNIVDADIMGWYRQAPGKEREIVASITDGGSTNYADSLKGRFTISRDHAKNTVYQQMNRLLPEDTAVYYCAAIAYPDIPTYFDYDSDYFYWGQGTQETVSS”: the “polyreactivity (PSR sort gate)” value is given as “high polyreactivity”. On to “QVQLQESGGGLVQAGGSLRLSCAASGNIYDADIMGWYRQAPGKERELVTSITDGGSTNYADSVKGRFTISRDNAKNTVYLQMNSLKPEDTAVYYCAAIAYPDIPTSFDYNTDYSYWGQGTQVTVSS”, for which the “polyreactivity (PSR sort gate)” value was “low polyreactivity”. “QVQLQESGGGLVQAGGSLRLSCAASGSIFKVVDMGLYRQAPAKEREFVATIGEGGNTYYADSVKGRFTISRDNAKNTVYLQMNSLKPEDTAVYYCNVDIGVYAYESDYWGQGTQVTVSS”: the “polyreactivity (PSR sort gate)” value is “low polyreactivity”. Consider “QVQLQESGGGLVQAGGSLRLSCAASGSIFQLHIMCWYRQAPGKERESVAAISYGTSTYYADSVKGRFTICRDNAKNTVYLQMNSPKTDDTAVYYCAALFLVSKHHHYWGEGTQVTVSS”, for which the “polyreactivity (PSR sort gate)” value is reported as “low polyreactivity”.

In the case of “QVQLQESGGGLVQAGGSLRLSCAASGSIFYEFYMGWYRQAPGKERELVAAIANGASTYYADSVKGRFTISRDNSKNTVYLQMSSLKPEDTAVYYCAVNTTSDIDYIYWGQGTQVNVSS”, the “polyreactivity (PSR sort gate)” value was “low polyreactivity”.

Take “QVQLQESGGGLVQAGGSLRLSCAASGSITHYIFMGWYRQAPGKEREFVAGIGYGGTTNYADSVKGRFTISRDNAINTVYLQMNSLKPEDTAMYYCAAREATEFYLYYWGQGTQVTVSS”: the “polyreactivity (PSR sort gate)” value is recorded as “low polyreactivity”.

“QVQLQESGGGLVQAGGSLRLSCAASGSIYVSVTMGWYRQAPGKERELVASIGRGSTTNHADSVKGRFTISRDNAKNIVYLLMNSLKPEDTAVYYCAALESYGKYHGYWGEGTQVTVSS”: the “polyreactivity (PSR sort gate)” value is listed as “low polyreactivity”. With “QVQLQESGGGLVQAGGSLRLSCAASGSSFEELDMGWYRQAPGKEREFVAAIGTGSTTYYADSVKGRLTISRDNAKNTVYLQMNSLKPEDTAVYYCAVDTWARAYLGYWGQGTQVTVSS”, the “polyreactivity (PSR sort gate)” value was “high polyreactivity”. For the sequence “QVQLQESGGGLVQAGGSLRLSCAASGTIFRFRYMGWHRQAPGKERELVAGINGGTTTYYADSVIGRFTISRDNAKKSVYLQMNSLKPDDTAVYNCAAGASRLTYYDYWGQGTQVTVSS”, the “polyreactivity (PSR sort gate)” value is “low polyreactivity”. In the case of “QVQLQESGGGLVQAGGSLRLSCAASGTISDSGLMGWYRQAPGKERELVAGISSGGITNYADSVKGRFTISRDIAKNTVYLQMNSLKPEDTAVYWGQGTQVTVSS”, the “polyreactivity (PSR sort gate)” value is on record as “low polyreactivity”. Take “QVQLQESGGGLVQAGGSLRLSCAASGTISDSGLMGWYRQAPGKERELVAGISSGGITNYADSVKGRFTISRDNAKKTVYLQMNSLKPEDTAVYWGQGTQLTVSS”: the “polyreactivity (PSR sort gate)” value is given as “low polyreactivity”. With “QVQLQESGGGLVQAGGSLRLSCAASGTISQEDWMGWYRQAPGKEREFVAAIGLGSNTNYADSLKGRFTISRDNAKNTVYLQMNSLKPEDTAVYYCAVSVWQYSDNVYRGQGTQVTVSS”, the “polyreactivity (PSR sort gate)” value was “low polyreactivity”.

Take “QVQLQESGGGLVQAGGSLRLSCAASGTISQEDWMGWYRQAPGKEREFVAPIGLGSNTNSADSLKGRFTISRDNAKNTVYLHMNSLKPEDTAVYYCAVCVWQYSDHVYRGQGTQVTVSS”: the “polyreactivity (PSR sort gate)” value is “low polyreactivity”. For “QVQLQESGGGLVQAGGSLRLSCAASGTISVHASMGWYRQAPGKERELVAGITDGANTYYADSVKGRFTISRDNSKNTVYMQKNSLKPEDTAVYYCAAYYGTEVHFTYWGQGTQVTVSS”, the “polyreactivity (PSR sort gate)” value was “low polyreactivity”. For the sequence “QVQLQESGGGLVQAGGSLRLSCAASGTISYGSVMGWYRQAPGKERELDAGIGYGSTTNYADSVKGRFTISRDNAKNTVYLQMNSLKPDDTAVYYCARDLYYVYSFAPYRYEYWGHGTQVTVSS”, the “polyreactivity (PSR sort gate)” value was “low polyreactivity”. As for “QVQLQESGGGLVQAGGSLRLSCAASGYISFSGYMGRYRQAPGKEREFVDSITPGRSTYYADSVKGRFTISRDNAENTVYLQMNSLQPEDTAVDYCAADDSRTEQHAYWGQGTQVTVRS”, the “polyreactivity (PSR sort gate)” value is “high polyreactivity”. Then “QVQLQESGGGLVQAGGSLRLSCAASGYISHADEMGWYRKAPGKEHELVASISNGGSTNYADSVKGRFTISRDNAKNTVYLQMNSLKSEDTAVYYCAAWTGQVDIHYYWGMGTQVTVSS”, with “low polyreactivity”. On to “QVQLQESGGGLVQAGGSLRLSCAASGYISHADEMGWYRQAPGKEHELVASISNGGSTNYADSVKGRFTIRRDNAKNTVYLQMNSLKSEDTAVYYCAAWTGQVDIHDSWGQRTQVTVSS”, for which the “polyreactivity (PSR sort gate)” value is listed as “low polyreactivity”. On to “QVQLQESGGGLVQAGGSLRLSCAASGYISHADEMGWYRQAPGKEHELVASISNGGSTNYADSVKGRFTISRDNAKNTVFLQMNSLKSEDTAVYYCAAWTGQVDIHYYWGQGTQVTVSS”, for which the “polyreactivity (PSR sort gate)” value is recorded as “low polyreactivity”. Turning to “QVQLQESGGGLVQAGGSLRLSCAASGYISHADEMGWYRQAPGKEHELVASISNGGSTNYADSVKGRFTISRDNANNTVYLQMNSLKSEVTAVYYCAAWTGQVDIHYYWGQGTQVTVSS”, the “polyreactivity (PSR sort gate)” value is “low polyreactivity”.

For “QVQLQESGGGLVQAGGSLRLSCEASGSIYYPRTMGRSRQAPGKELEFVAGSGVGGTTYYADSVKGRFTISRDNAKNTVYLQMNSLIPEDDAVYYCAVAAYYDKYYVYWGQGTQVTVSC”, the “polyreactivity (PSR sort gate)” value was “low polyreactivity”. Consider “QVQLQESGGGLVQAGGSLRLSSAASGSIFKVVDMGLYRQAPAKEREFVATIGEGGNTYYADSVKGRFTMSRDNAKNTVYLQKNSLKPEDTALYFYAVVLGTSYRYTYWGQGTQVTVSS”, for which the “polyreactivity (PSR sort gate)” value is given as “low polyreactivity”.

Turning to “QVQLQESGGGLVQAGGSLRLTCAASGSISYPRTMGWYRQAPGKEREFVAGIGVGGTTYYADSVKGRYTISRDNAKNTVYLQMNSLKPEHAAVDYCAVAAYYDKYYVYWGQGTQVTVSC”, the “polyreactivity (PSR sort gate)” value is “low polyreactivity”. On to “QVQLQESGGGLVQAGGSLRMICAASGYISACRQMGWYRKAPGKEREFVATINGGATTNYADSVKGRFTISRDNAKNSVYLQMNSLKPEDTAVYYCAAVIWYVQDYTYWGQGAQVTVSS”, for which the “polyreactivity (PSR sort gate)” value is given as “high polyreactivity”. Consider “QVQLQESGGGLVQAGGSLRMSCAASGNIFDADIMGWSRQAPGKERELVASNTDGRRTNYADSVKGRYTISRDSEKNTVYLQMNSLKAEDTAEYYCAAIAYPVVPTSFDYDCDYFHWGQGTQVTVSS”, for which the “polyreactivity (PSR sort gate)” value is “high polyreactivity”. Turning to “QVQLQESGGGLVQAGGSLRMSCAASGTISPLPAMGWYRQAPGKDRDFVAGIDTGAITNYADSVKGRFTISRDNAKNTVYLQMNSLKPEDTAVYYCAVFPAAYDYYERYYTYWGQGTQVTVSS”, the “polyreactivity (PSR sort gate)” value is given as “low polyreactivity”. As for “QVQLQESGGGLVQAGGSLRMSCSASGNIFDADIMGWYRQAPGKERELVASITDGRRTNYADSVKGRYTISRDSEKNTVYLQMNSLKPEDTAVYYCAAIAYPVVPTYFDYDSDYFHWGQGTQVTVSS”, the “polyreactivity (PSR sort gate)” value was “high polyreactivity”. As for “QVQLQESGGGLVQAGGSLRQSYAASGYIFPSLAMGWYRQAPGKEREFVAAIGRGSTNNYADSVQGRFTISRDNAKNTAYQQMNSLKPEDTAVYYCAAAASPLTRHLYWGQGTQVTVSS”, the “polyreactivity (PSR sort gate)” value is listed as “low polyreactivity”.

“QVQLQESGGGLVQAGGSPRLSCAASDNIFPDSLMCWYRQAPGKERELVATIGFGATTNYEDSVKGRFTISRDNAKNTVYLQMNSLNPEDTALYYCAAVPLNYEYFCYWGQGTQVTVSS”: the “polyreactivity (PSR sort gate)” value was “low polyreactivity”. Then “QVQLQESGGGLVQAGGSPRLSCAASDNIFPDSVMCWYRQAPGKERELVATIGFGATTNYADSVKGRFTISRDNAKNTVYLQMNSLKPEDTAVYYCAAVPLNYEYFCYWGQGTQVTVSS”, with “low polyreactivity”. As to “QVQLQESGGGLVQAGGSQRLSCAASGSISILQSMRWYRQAPGKERELVAGINWGATTYYADSVKGRLTSCRDYAKNTVYLEMNSLNPEDTAVYYCAVPTYYTYPLLYWGQGTQVTVSS”, the “polyreactivity (PSR sort gate)” value is listed as “low polyreactivity”.

On to “QVQLQESGGGLVQAGGSQRLSCAASGYIFYFQYMGWYRQAPGKEREFVAAISDGANTNYADSVKGRFTISRDNAKNTEYLQMNSLKPEDTAVYYCAAGLSTGTIAYGYNYWRQGTQVTVSS”, for which the “polyreactivity (PSR sort gate)” value is “low polyreactivity”.
